Laboratory results as given in a protein production outcome set (Wang et al. 2014).

Assay: label from the status in PepcDB records

| Sequence | protein production |
| --- | --- |
| MCAPKRGRSQQFITTVIVCWRMASFSFRIEVRLSDAERRPTMRQQLFSTLTVLVALVGLSRAVVAQPMAIATLTPPELQELQRLVPRSAEDYYNLGLMHQGRGDLAAAIDAFSQAIKLNPSADYYFARGLAYYDQGDMQRAIADFTTALGDDPQFIAAYYNRGMAYLALQNYDAAIADFDAALARDPQFVAAYYSRGMAHFDRGNVELAQRDYERARALNPAMTAQYYDRAPRPLTGGP | failed |
| MCASKRSFFMSNSKFNVRLLTEIAFMAALAFIISLIPNTVYGWIIVEIACIPILILSFRRGLTAGLVGGLIWGILSMITGHAYILTLSQAFLEYLIAPVSLGIAGLFRQKTASLKLVPVLLGTFVAVLLKYFFHFIAGIIFWSQYAWKGWGAVAYSLAVNGISAILTAIAAFVILIIFVKKFPKLFIYSNY | failed |
| MCEGHTRNDPCERRHDPGARVRRKAGKIRSMILVFFSLCLGALIGALFRFPWYMLFLLAAIFWKRNKDISVVIFFTLLSASLYQIGTLPAGNYELVGYAERGRLKQVKVFQEEWKRIHPVRIETSEEGYVYAIGYFDGKAFHPSYLKKVEKPSLKTLKESFSGMANGTVLSVLFGEKNGDIYRSGLGHFFAVSGLHVGIAFSLYTTLLSFLTWRRTYQELTALLLLVPYVIAVGTPSVIRAYLTIFLWVAFKIFGFRTTPLHTTATVGSFMMIVDPTVVFTPSFLLSFFVTLCILESKNIFELTVKAYLSALPFLCLFFGGTNMSALVLSIPVSLLMIPVTWLAHLSFLLFLLGLKTSALIAAKITNIVSLPLNGFIKLANLLPEVPLPQYLYFILIFFPLLFLSPDIRDIFRKISGRAIL | failed |
| MCEKTAGDESGRRISRRAGNGEAGRLRSLSRLFDHFATAVTRWTGSPIAFSGACAAILAWASTGPLFGYSEVWQLVVNTGTTIVTFLMVFLIQQAQNKDSRALHVKLDELLVAVNGADVALAEAENLDDDRLLELADAYAARARRLVEHSTQRQRRDRGAEPEVGAARTRLARRPPGARARRHARLCWWQKQYARQRQGGDT | failed |
| MCGIVGANSTRNVTNILIEGLKKLEYRGYDSAGLAIIDDKNNIDICKEVGKVIELEKSVHNLANFKGDIGIAHTRWATHGKPSKNNSHPHASESFCIVHNGVIENFAELKKVLINDGYKFKSDTDTEVIAHLLQKEWRDNFSIVDNIKYIMAMLKGAYAVAIISQKFSDKIVAVRSGSPLVIGVGIDENFISSDALSLLPVTNKFSYLDEGDIAIISKDNVEVFDNNGAAKNLEVEEYNYSSSSASKDGYKHYMLKEIYEQPEAVSNTILASLADGEISLDSFDKRAKELFEKTKHICIVACGTSYNAGMTAKYWIEKYAKVPCSVEIASEIRYRDNVVVDGSLFVSISQSGETADTLESLRKSKKQNYVGSMCICNVPNSSLVRESDIAFMTKAGVEIGVASTKAFTTQLVALAIFTLVIAKLKNSLTDQQIAKYTEELKNIRALVMGALKLDTEIDQISEYFSDKEHTIFLGRGLYYPIAIEGALKLKEISYIHAEAYPSGELKHGPLALVDKNMPIVAVVPNDELLDKTLSNLQEVHARGGKLILFVDKAVKERVNFDNSIVLELDAGHDFSAPVVFTIPLQLLSYHVAIIKGTDVDQPRNLAKSVTVE | not failed |
| MCGVELDSLISQVKDLLPDLGEGFILACLEYYHYDPEQVINNILEERLAPTLSQLDRNLDREMN | not failed |
| MCIGFCIDRLDKGFLYTCHSTICRLVAQNMKKSLIHIGDGLGLSLLIEPTGSKSWRFRYRFGGKPKMISFGAYPLVSLAEARKKRDEARKQVLDGINPSEHRKAQKLNLMSESENTFETIAREWHTMKSVCWSVGYASDIMEAFRNDIFPYVGKRSIAEVKPLELLNVMRKMEKRGALEKMKKVRQRCSEVFRYAIATGRAEYNPAADLSSALEVHQSHHFPFLKADEIPDFLRALEGYTGSKLVRIATKLLLITGVRTIELRAALWSEFDLGNAIWEIPEERMKKRRAHLVPLSTQALDLLNELKIMTGNYRYVFPGRNNPNKPMSEASINQVIKRIGFGGEVTGHGFRHMLSTILHEEGFDSSFIEIQLAHVDRNSIRGTYNHAQYLEKRRHMMQYYSDYVIGKDF | failed |
| MCILGTTAKSLRLASVYGLSLFILFIVPLYLWQSTAAKMIAEVDWLDVATEGALFVLGMCWLMVIVSVRPSGRVTNLLIAGLSSYCLGCYLDLLDEIFIVKTLPIYNWFEKMPTPVGLLVLTGGLWLWRDEQTVVNRQLQTREQFHREHQLTDSLTLLNDAKAFEHHLVKQLSQNQSVGLLMLDVDYFHRYNKNQGVEEGDKLLSQLALWLSSTLRNQDLVCRYAGDRFVILLRGAIPSFVSVMAEQLQHGIKAFDCSATVVWTLPSPKMLPLQNSTCTAKEEAIALLQVLNQKMSQQKELRVSEAIAPSPFNTLDKSAASELN | failed |
| MCKHILGKGYVDGVIEADEVFFTESFKGTKPSNMPRRSRKIGKQVKKSGISKEQVCITTAIDRQGNLIMELACKGRITSKELEKLYDGHISNESILCTDSRKSYIQFANDLSLEHKRIKRGKHKEGLYHIQHINVLHSNLRKWMNRFNGAATKYISNYIKWFKWLQIFDTHKEIIKAKNFIVQSNVAHAYIKVKDLKYREPICV | failed |
| MCLCQLSRRKKRPDDSDTQSAPGAVQGTGADYSGAVTASAASTVTHPTVTRHVTASGARIYTIGIRAFEHLGVNVFLVVVGDPQQPSYTALIDAGSSFDFSQQGLLDGLKRVREEYGEAWSWETLSRLVITHPHPDHVGGLPFVRTLTAAPVAAHALAAAVIEEPGRRAEAFKLGADAMLARLGVPEGEYAARLRRRAGNLMSPSGVKVETALQDGDTLDGLFTVLHTPGHDGAQICLRLDEVLLSADHLLPHNSPPLMPGWMLPGSGLGPYLAALDHIETLEGVDLALGSHDEPMPDWRGRVDFLRRRYDDKLRGVLGAASEPQTIYALTCAVNPRLRAAQALLLLDQTAALVEELVVRGELHETREQAADGERWTYQRA | failed |
| MCLDACLTPDLADRDPVGRACDRAYVIDRPVFRSAMGNCRPSHFRGNGTHAAMNGESCAQRGKRTHKMQESEFFQLSGTTAVLLLVAFYGATFLMSLMIGQKKENVDGYMVSNSSVGFGLSAASMIATWIWAASFYASATSGFKYGLSGPIHYGFWGALMILFIYPFGKRFRQLAPKAHTLAEVIHARHGASSQMIMAVSNIVGSCISLMVNFTAAGALVSVLSPLSFIQGVLIAGLGVLSYTLWSGFRASVMTDFAQLVAMILAAVIIIPLIFFNAGGPDMLQANMWRLSSEQADFFSTTAILEQGAPYFVAVLAYAIGNQTIAQRLFAVREDLIKPTFLTATIGYGAVVIGLGMLGLLALFVGLEPVNGNMNNIIPQMASTYLPPVGIALFFILVVGSLSSTADSDLAALSAIVMTDIYAKNLAGGRPDPRRMLWWGRATMIVATMVGVIFASLRLDILVMLVFVGALWGAIVFPVIASFYWDRVSNSAFFWSVISAVVLFTIVRFELVPIEGAVAVFYEICAAIGGGVVIGLMSFAFFGRVTALTLGTLATLFLLPCFVGTLREYIVLLGSLTAYGVSTVVCVALSLRNQERFDFSLLAERVTSFHYEKARMMGAKPAAPAAQPQPARG | failed |
| MCLSIPSQVVAVDNERQSVTVDTLGVRRDVSSHLMTEPLAIGDYVLIHIGFVMNKIDRNDALQSLELYQEIVSKLENETTH | not failed |
| MCRSIRLTAMAAFLVIMGGAACSGKPVLPDLTLEGGDRSYSELITAQQHSFSIHTPSDAPLENSSIRIEVNEGESLTPRLRSSGSVDCSSLASVVAGVVAPGMTAEEKALALWRFVMDSCYHGRWGTSLDGLEHLNVYGYGYCGTYAAVLESLWWTAGLTARHVNIGNHAATEVYYNNDWHYIDADTRTYFLLKDNRTIASLDELNDNVELWTMLRRGSSRKAGKKYYYMTMHPNGHGRSPVYTNDFTMAKGDVLTLDWQSRGKWCLNRGQEGGKEPAGEPPFYGNGLFTFHRDFKDRSQSRSGLVSSTNIDWQDAAAGYLHPQHAKQEASLVYRVKTPYFIPETTLSGSFFRKGTGDSAAIDISTDNGKRWVSLWRADATGTVKASVVTAQTQQVTTDVPWKYSYLMRLRMRAGKSPRDVGAYHLDSASVLAYNPRCLPALRPGDNRITFSDGSQARRTVRVTYNWHDDLPITLSKETPFEGEEITVSARVTNRGAAEAHNVPVAVYLGNPAQGGVEIGRDTISRIPVGGTGLARVQWKATRKLAGRAANPGVPVYAVVDPDNRVAESDKANNVFSRIVKVLNPPDVRIPSESFIRFERAKDHSQSLAVVASVRNFSNSADYGLFLDDHGTGEAVEVTVYDGNPAKGGKVIGRETISRLLPLEHRNVSVKWDIAQLKGVHTVYVQVHPPANLTRAPGKRAPAAMAVPVDLDAYRSCKGI | failed |
